Patent US9889181B2, “Bacteriophage lysin and antibiotic combinations against gram positive bacteria” (priority 2012, dated 2018)

Experiments:
Klebsiella spp. = assay: MIC, human gut bacteria; format: cell-based; conditions: N 8
Proteus mirabilis = assay: MIC, human gut bacteria; format: cell-based; conditions: N 2
Lactococcus spp. = assay: MIC, human gut bacteria; format: cell-based; conditions: N 3
[1] = test system: 20 different MSSA and 42 MRSA strains; assay: Time-kill assay, single agents at 1×MIC; format: cell-based, Staphylococcus aureus
Protocol: In order to more fully evaluate PlySs2's applicability to clinical Staphylococcal infections, time kill studies were undertaken against numerous Staphylococcus aureus strains, including methicillin resistant and methicillin sensitive strains. Time kill assays were performed according to CLSI methodology (CLSI document M07-A9 column 32 No. 2) on 42 methicillin resistant S. aureus (MRSA) strains and 20 methicillin sensitive S. aureus (MSSA) strains. Cultures of each strain (5.5×10^5-1×10^6 starting inoculum) were treated with PlySs2 lysin and with antibiotics daptomycin, oxacillin or vancomycin for comparison for 6 hours with aeration. MRSA and MSSA strains were treated with PlySs2, daptomycin and vancomycin. MSSA strains were also treated with oxacillin. 1×MIC concentrations of the different antibiotics were utilized, based on published and established antibiotic MIC values. PlySs2 lysin treatment was at approximately 1×MIC as previously determined (see TABLE 2 above). Culture aliquots were removed hourly up to 6 hours (time points taken at 15 and 30 min, 1 hr, 2 hr, 3 hr, 4 hr, 5 hr, and 6 hr) and added to a PBS/charcoal solution (to inactivate each drug), which was then serially diluted and plated for bacterial viability. The resulting log CFU/mL was plotted for each culture. Growth controls were included for each strain and represent bacterial growth in the absence of any antibacterial agent. Exemplary log kill curves for selected MRSA strains are depicted in FIG. 1. Exemplary log kill curves for selected MSSA strains are depicted in FIG. 2.
(§1) Rapid-kill kinetics are desirable in the clinical setting to treat patients with fulminant bacterial infections.

[2] = test system: S. aureus cells (strain MW2); assay: Electron microscopy of bacteriolysis; format: cell-based, Staphylococcus aureus
Excerpt: FIG. 4A-4F provides composite time kill curves of PlySS2 and antibiotics on S. aureus cells in vitro. (A, B) Composite time-kill curves of PlySS2 compared to oxacillin (OXA), vancomycin (VAN), and daptomycin (DAP) against sets of 20 MSSA and 42 MRSA strains, respectively. In each individual analysis, drug concentrations correspond to strain-specific 1×MIC values. Mean values (±standard error of the mean) are shown for each time-point. (C, D) Titration analysis of PlySS2 against sets of 15 contemporary clinical MSSA and MRSA isolates, respectively. In each individual analysis, PlySS2 concentrations correspond to strain-specific MIC values. […] (E,F) Transmission electron micrographs (3300× magnification) of S. aureus cells (strain MW2) before and after 3 second treatment with 8 µg/mL PlySS2. Scale bars correspond to […]. Lysis results in the loss of darkly stained cytoplasmic components.
as §1

MRSA strains = assay: Time kill assay, PlySs2 and antibiotic alone or in combination; format: cell-based, Staphylococcus aureus; conditions: ½ MIC of PlySs2 or ¼ MIC of vancomycin alone
MRSA S. aureus strains = assay: Dual agent MIC assay (PlySs2 and daptomycin); format: cell-based, Staphylococcus aureus
MRSA strain 269 (MW2) = assay: Combination MIC in 15% surfactant (Survanta); format: cell-based, Staphylococcus aureus
MRSA strain MW2 = assay: Murine bacteremia, low challenge model; format: in vivo, BALB/c mice; conditions: single dose at 4 hours; 1.25 mg/kg PlySs2, 2 mg/kg daptomycin
MSSA = assay: MIC, broth microdilution (CLSI M07-A9)
VRSA = assay: MIC, broth microdilution (CLSI M07-A9)
DRSA = assay: MIC, broth microdilution (CLSI M07-A9)
[3] = test system: Staphylococcus epidermidis; assay: MIC, broth microdilution (CLSI M07-A9); conditions: Staphylococcus epidermidis (11)
Streptococcus mutans = assay: MIC, broth microdilution (CLSI M07-A9); conditions: Streptococcus mutans (12)
Listeria monocytogenes = assay: MIC, broth microdilution (CLSI M07-A9); conditions: Listeria monocytogenes (12)
Enterococcus faecalis = assay: MIC, broth microdilution (CLSI M07-A9); conditions: Enterococcus faecalis (17)
Acinetobacter baumannii = assay: MIC, broth microdilution (CLSI M07-A9); conditions: Acinetobacter baumannii (8)
Escherichia coli = assay: MIC, broth microdilution (CLSI M07-A9)
Pseudomonas aeruginosa = assay: MIC, broth microdilution (CLSI M07-A9)
[4] = Staphylcoccus aureus Methicillin susceptible (103)

B1: PlySs2: bacteriophage lysin derived from Streptococcus suis, amino acid sequence of FIG. 29 (SEQ ID NO: 1) (protein, listed as Streptococcus suis)
chain: MTTVNEALNNVRAQVGSGVSVGNGECYALASWYERMISPDATVGLGAGVGWVSGAIGDTISAKNIGSSYNWQANGWTVSTSGPFKAGQIVTLGATPGNPYGHVVIVEAVDGDRLTILEQNYGGKRYPVRNYYSAASYRQQVVHYITPPGTVAQSAPNLAGSRSYRETGTMTVTVDALNVRRAPNTSGEIVAVYKRGESFDYDTVIIDVNGYVWVSYIGGSGKRNYVATGATKDGKRFGNAWGTFK
- CF-301 MIC (Klebsiella spp.): >512 µg/mL
- CF-301 MIC (Proteus mirabilis): >512 µg/mL
- CF-301 MIC (Lactococcus spp.): >512 µg/mL
- time to reach bactericidal levels (≧3-log10 reduction in CFUs) ([1]; 1×MIC): ≤ 30 minutes
- comparative kill ([1]; 1×MIC, up to 6 hours): greater and faster than any antibiotic
- maximal kill (log reduction) ([1]; all MRSA and MSSA strains tested, generally within the first hour of incubation): ≥ 3 log
- treatment time giving extensive bacteriolysis of S. aureus cocci [2]: 15 s
- effect alone at sub-MIC doses up to 6 hours (MRSA strains): ineffective or poorly effective
- Fold reduction (MRSA S. aureus strains; MRSA strain 223): 4 fold
- Fold reduction (MRSA S. aureus strains; MRSA strain 241): 2 fold
- Fold reduction (MRSA S. aureus strains; MRSA strain 263): 4 fold
- Fold reduction (MRSA S. aureus strains; MRSA strain 269 (MW2)): 4 fold
- Fold reduction (MRSA S. aureus strains; MRSA strain 270): 4 fold
- Fold reduction (MRSA S. aureus strains; MRSA strain 553): 2 fold
- Fold reduction (MRSA S. aureus strains; MRSA strain 650): 2 fold
- Fold reduction (MRSA S. aureus strains; MRSA strain 827): 2 fold
- Fold reduction (MRSA S. aureus strains; MRSA strain 828): 4 fold
- Fold reduction (MRSA S. aureus strains; MRSA strain 829): 2 fold
- Fold reduction (MRSA S. aureus strains; MRSA strain 830): 2 fold
- Fold reduction (MRSA S. aureus strains; MRSA strain 833): 4 fold
- fold reduction in the effective MIC in PlySs2/daptomycin combination (MRSA S. aureus strains; across 12 MRSA strains): 2-4 fold
- effective combination concentration as fraction of the MIC (MRSA strain 269 (MW2)): ⅛
- effective concentration in PlySs2 plus daptomycin combination MIC (MRSA strain 269 (MW2); 24 hours): 2 µg/mL
- survival at 72 hours (MRSA strain MW2): 13%
- MIC90 (MSSA; MSSA (n-28)): 0.15 µM
- MIC 50% (MSSA; [4]): 4 µg/mL
- MIC 90% (MSSA; [4]): 8 µg/mL
- MIC Range (MSSA; [4]): 1 to 16 µg/mL
- MIC90 (VRSA; VRSA (n = 14)): 0.08 µM
- MIC Range (VRSA; Vancomycin-resistant (14) Staphylococcus aureus): 1000 to 4000 µg/mL
- MIC90 (DRSA; DRSA (n = 8)): 0.15 µM
- MIC Range (DRSA; Daptomycin-resistant (8) Staphylococcus aureus): 2000 to 4000 µg/mL
- MIC 50% [3]: 128 µg/mL
- MIC 90% [3]: 512 µg/mL
- MIC Range [3]: 4 to 512 µg/mL
- MIC 50% (Streptococcus mutans): 64 µg/mL
- MIC 90% (Streptococcus mutans): 256 µg/mL
- MIC Range (Streptococcus mutans): 2 to 256 µg/mL
- MIC 50% (Listeria monocytogenes): 128 µg/mL
- MIC 90% (Listeria monocytogenes): 512 µg/mL
- MIC Range (Listeria monocytogenes): 1 to 512 µg/mL
- MIC 50% (Enterococcus faecalis): >512 µg/mL
- MIC 90% (Enterococcus faecalis): >512 µg/mL
- MIC 50% (Acinetobacter baumannii): >512 µg/mL
- MIC 90% (Acinetobacter baumannii): >512 µg/mL
- MIC Range (Acinetobacter baumannii): >512 µg/mL
- MIC 50% (Escherichia coli; Escherichia coli (6)): >512 µg/mL
- MIC 90% (Escherichia coli; Escherichia coli (6)): >512 µg/mL
- MIC Range (Escherichia coli; Escherichia coli (6)): >512 µg/mL
- CF-301 MIC (Escherichia coli; Escherichia coli, N 10, human gut bacteria): >512 µg/mL
- MIC 50% (Pseudomonas aeruginosa; Pseudomonas aeruginosa (5)): >512 µg/mL
- MIC 90% (Pseudomonas aeruginosa; Pseudomonas aeruginosa (5)): >512 µg/mL
- MIC Range (Pseudomonas aeruginosa; Pseudomonas aeruginosa (5)): >512 µg/mL
- CF-301 MIC (Pseudomonas aeruginosa; Pseudomonas aeruginosa, N 11, human gut bacteria): >512 µg/mL
